B1: Protein X (Hepatitis B virus genotype D subtype ayw (isolate France/Tiollais/1979)), P03165 (parent)
chain: MAARLCCQLDPARDVLCLRPVGAESRGRPFSGSLGTLSSPSPSAVPTDHGAHLSLRGLPVCAFSSAGPCALRFTSARRMETTVNAHQILPKVLHKRTLGLSAMSTTDLEAYFKDCLFKDWEELGEEIRLKVFVLGGCRHKLVCAPAPCNFFTSA

Variants of: B1
Details: with akt1_human AKT1, P31749
akt1_human AKT1, P31749, sequence (P31749 whole entry): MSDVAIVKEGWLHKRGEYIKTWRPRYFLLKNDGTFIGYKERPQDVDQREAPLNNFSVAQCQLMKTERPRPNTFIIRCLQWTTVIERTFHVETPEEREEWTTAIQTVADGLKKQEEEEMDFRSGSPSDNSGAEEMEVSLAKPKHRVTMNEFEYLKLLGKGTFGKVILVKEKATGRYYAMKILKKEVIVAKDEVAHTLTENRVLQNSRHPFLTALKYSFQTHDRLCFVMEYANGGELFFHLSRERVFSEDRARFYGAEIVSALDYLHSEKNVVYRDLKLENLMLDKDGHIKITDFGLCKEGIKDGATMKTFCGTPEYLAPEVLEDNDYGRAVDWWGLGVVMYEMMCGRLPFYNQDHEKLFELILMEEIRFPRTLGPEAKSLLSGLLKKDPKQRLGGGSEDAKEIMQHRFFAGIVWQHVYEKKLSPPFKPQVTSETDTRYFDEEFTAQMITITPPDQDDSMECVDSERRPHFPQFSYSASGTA

Variant | effect of a mutation on the interaction
S31A | disrupting interaction
